{"source": "IntAct's records for PubMed 24464040", "key": {"kap3_rat Prkar2b [1]": {"target": "kap3_rat Prkar2b (UniProt P12369)", "sequence (P12369 whole entry)": "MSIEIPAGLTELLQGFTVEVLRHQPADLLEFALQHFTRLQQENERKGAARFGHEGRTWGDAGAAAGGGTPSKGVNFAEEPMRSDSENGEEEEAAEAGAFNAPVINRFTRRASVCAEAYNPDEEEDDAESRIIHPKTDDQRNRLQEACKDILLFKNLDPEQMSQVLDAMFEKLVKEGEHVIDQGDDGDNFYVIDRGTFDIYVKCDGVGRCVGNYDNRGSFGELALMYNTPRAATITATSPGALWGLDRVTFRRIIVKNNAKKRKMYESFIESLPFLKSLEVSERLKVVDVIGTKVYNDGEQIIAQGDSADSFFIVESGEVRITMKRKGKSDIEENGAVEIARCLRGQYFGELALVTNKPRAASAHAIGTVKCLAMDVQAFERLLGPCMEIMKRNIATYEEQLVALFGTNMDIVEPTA"}, "kap3_rat Prkar2b [2]": {"target": "kap3_rat Prkar2b (UniProt P12369)", "remark": "listed apart in the source"}}}
{"substance": "Leucine-rich repeat serine/threonine-protein kinase 2 (Homo sapiens), Q5S007 G2385R", "values": [{"measurement": "effect of a mutation on the interaction", "setting": "kap3_rat Prkar2b [1]", "result": "increasing interaction"}]}
{"substance": "Leucine-rich repeat serine/threonine-protein kinase 2 (Homo sapiens), Q5S007 R1441C", "values": [{"measurement": "effect of a mutation on the interaction", "setting": "kap3_rat Prkar2b [2]", "result": "decreasing interaction"}]}
